Reference: IntAct's records for PubMed 23463101

B1: Trinucleotide repeat-containing gene 6C protein (Homo sapiens), Q9HCJ0-1 (parent)
chain: MATGSAQGNFTGHTKKTNGNNGTNGALVQSPSNQSALGAGGANSNGSAARVWGVATGSSSGLAHCSVSGGDGKMDTMIGDGRSQNCWGASNSNAGINLNLNPNANPAAWPVLGHEGTVATGNPSSICSPVSAIGQNMGNQNGNPTGTLGAWGNLLPQESTEPQTSTSQNVSFSAQPQNLNTDGPNNTNPMNSSPNPINAMQTNGLPNWGMAVGMGAIIPPHLQGLPGANGSSVSQVSGGSAEGISNSVWGLSPGNPATGNSNSGFSQGNGDTVNSALSAKQNGSSSAVQKEGSGGNAWDSGPPAGPGILAWGRGSGNNGVGNIHSGAWGHPSRSTSNGVNGEWGKPPNQHSNSDINGKGSTGWESPSVTSQNPTVQPGGEHMNSWAKAASSGTTASEGSSDGSGNHNEGSTGREGTGEGRRRDKGIIDQGHIQLPRNDLDPRVLSNTGWGQTPVKQNTAWEFEESPRSERKNDNGTEAWGCAATQASNSGGKNDGSIMNSTNTSSVSGWVNAPPAAVPANTGWGDSNNKAPSGPGVWGDSISSTAVSTAAAAKSGHAWSGAANQEDKSPTWGEPPKPKSQHWGDGQRSNPAWSAGGGDWADSSSVLGHLGDGKKNGSGWDADSNRSGSGWNDTTRSGNSGWGNSTNTKANPGTNWGETLKPGPQQNWASKPQDNNVSNWGGAASVKQTGTGWIGGPVPVKQKDSSEATGWEEPSPPSIRRKMEIDDGTSAWGDPSNYNNKTVNMWDRNNPVIQSSTTTNTTTTTTTTTSNTTHRVETPPPHQAGTQLNRSPLLGPGRKVSSGWGEMPNVHSKTENSWGEPSSPSTLVDNGTAAWGKPPSSGSGWGDHPAEPPVAFGRAGAPVAASALCKPASKSMQEGWGSGGDEMNLSTSQWEDEEGDVWNNAASQESTSSCSSWGNAPKKGLQKGMKTSGKQDEAWIMSRLIKQLTDMGFPREPAEEALKSNNMNLDQAMSALLEKKVDVDKRGLGVTDHNGMAAKPLGCRPPISKESSVDRPTFLDKDGGLVEEPTPSPFLPSPSLKLPLSHSALPSQALGGIASGLGMQNLNSSRQIPSGNLGMFGNSGAAQARTMQQPPQPPVQPLNSSQPSLRAQVPQFLSPQVQAQLLQFAAKNIGLNPALLTSPINPQHMTMLNQLYQLQLAYQRLQIQQQMLQAQRNVSGSMRQQEQQVARTITNLQQQIQQHQRQLAQALLVKQPPPPPPPPHLSLHPSAGKSAMDSFPSHPQTPGLPDLQTKEQQSSPNTFAPYPLAGLNPNMNVNSMDMTGGLSVKDPSQSQSRLPQWTHPNSMDNLPSAASPLEQNPSKHGAIPGGLSIGPPGKSSIDDSYGRYDLIQNSESPASPPVAVPHSWSRAKSDSDKISNGSSINWPPEFHPGVPWKGLQNIDPENDPDVTPGSVPTGPTINTTIQDVNRYLLKSGGKLSDIKSTWSSGPTSHTQASLSHELWKVPRNSTAPTRPPPGLTNPKPSSTWGASPLGWTSSYSSGSAWSTDTSGRTSSWLVLRNLTPQIDGSTLRTLCLQHGPLITFHLNLTQGNAVVRYSSKEEAAKAQKSLHMCVLGNTTILAEFAGEEEVNRFLAQGQALPPTSSWQSSSASSQPRLSAAGSSHGLVRSDAGHWNAPCLGGKGSSELLWGGVPQYSSSLWGPPSADDSRVIGSPTPLTTLLPGDLLSGESL

What was measured:
[1] = variants of: B1; settings: with pabp_drome pAbp
[2] = variants of: B1; settings: with cnot1_human CNOT1, A5YKK6
[3] = variants of: B1; settings: with pabp_drome pAbp; remark: listed apart in the source
[4] = variants of: B1; settings: with pabp_drome pAbp; remark: listed apart in the source

Sequence of cnot1_human CNOT1, A5YKK6 (A5YKK6 whole entry): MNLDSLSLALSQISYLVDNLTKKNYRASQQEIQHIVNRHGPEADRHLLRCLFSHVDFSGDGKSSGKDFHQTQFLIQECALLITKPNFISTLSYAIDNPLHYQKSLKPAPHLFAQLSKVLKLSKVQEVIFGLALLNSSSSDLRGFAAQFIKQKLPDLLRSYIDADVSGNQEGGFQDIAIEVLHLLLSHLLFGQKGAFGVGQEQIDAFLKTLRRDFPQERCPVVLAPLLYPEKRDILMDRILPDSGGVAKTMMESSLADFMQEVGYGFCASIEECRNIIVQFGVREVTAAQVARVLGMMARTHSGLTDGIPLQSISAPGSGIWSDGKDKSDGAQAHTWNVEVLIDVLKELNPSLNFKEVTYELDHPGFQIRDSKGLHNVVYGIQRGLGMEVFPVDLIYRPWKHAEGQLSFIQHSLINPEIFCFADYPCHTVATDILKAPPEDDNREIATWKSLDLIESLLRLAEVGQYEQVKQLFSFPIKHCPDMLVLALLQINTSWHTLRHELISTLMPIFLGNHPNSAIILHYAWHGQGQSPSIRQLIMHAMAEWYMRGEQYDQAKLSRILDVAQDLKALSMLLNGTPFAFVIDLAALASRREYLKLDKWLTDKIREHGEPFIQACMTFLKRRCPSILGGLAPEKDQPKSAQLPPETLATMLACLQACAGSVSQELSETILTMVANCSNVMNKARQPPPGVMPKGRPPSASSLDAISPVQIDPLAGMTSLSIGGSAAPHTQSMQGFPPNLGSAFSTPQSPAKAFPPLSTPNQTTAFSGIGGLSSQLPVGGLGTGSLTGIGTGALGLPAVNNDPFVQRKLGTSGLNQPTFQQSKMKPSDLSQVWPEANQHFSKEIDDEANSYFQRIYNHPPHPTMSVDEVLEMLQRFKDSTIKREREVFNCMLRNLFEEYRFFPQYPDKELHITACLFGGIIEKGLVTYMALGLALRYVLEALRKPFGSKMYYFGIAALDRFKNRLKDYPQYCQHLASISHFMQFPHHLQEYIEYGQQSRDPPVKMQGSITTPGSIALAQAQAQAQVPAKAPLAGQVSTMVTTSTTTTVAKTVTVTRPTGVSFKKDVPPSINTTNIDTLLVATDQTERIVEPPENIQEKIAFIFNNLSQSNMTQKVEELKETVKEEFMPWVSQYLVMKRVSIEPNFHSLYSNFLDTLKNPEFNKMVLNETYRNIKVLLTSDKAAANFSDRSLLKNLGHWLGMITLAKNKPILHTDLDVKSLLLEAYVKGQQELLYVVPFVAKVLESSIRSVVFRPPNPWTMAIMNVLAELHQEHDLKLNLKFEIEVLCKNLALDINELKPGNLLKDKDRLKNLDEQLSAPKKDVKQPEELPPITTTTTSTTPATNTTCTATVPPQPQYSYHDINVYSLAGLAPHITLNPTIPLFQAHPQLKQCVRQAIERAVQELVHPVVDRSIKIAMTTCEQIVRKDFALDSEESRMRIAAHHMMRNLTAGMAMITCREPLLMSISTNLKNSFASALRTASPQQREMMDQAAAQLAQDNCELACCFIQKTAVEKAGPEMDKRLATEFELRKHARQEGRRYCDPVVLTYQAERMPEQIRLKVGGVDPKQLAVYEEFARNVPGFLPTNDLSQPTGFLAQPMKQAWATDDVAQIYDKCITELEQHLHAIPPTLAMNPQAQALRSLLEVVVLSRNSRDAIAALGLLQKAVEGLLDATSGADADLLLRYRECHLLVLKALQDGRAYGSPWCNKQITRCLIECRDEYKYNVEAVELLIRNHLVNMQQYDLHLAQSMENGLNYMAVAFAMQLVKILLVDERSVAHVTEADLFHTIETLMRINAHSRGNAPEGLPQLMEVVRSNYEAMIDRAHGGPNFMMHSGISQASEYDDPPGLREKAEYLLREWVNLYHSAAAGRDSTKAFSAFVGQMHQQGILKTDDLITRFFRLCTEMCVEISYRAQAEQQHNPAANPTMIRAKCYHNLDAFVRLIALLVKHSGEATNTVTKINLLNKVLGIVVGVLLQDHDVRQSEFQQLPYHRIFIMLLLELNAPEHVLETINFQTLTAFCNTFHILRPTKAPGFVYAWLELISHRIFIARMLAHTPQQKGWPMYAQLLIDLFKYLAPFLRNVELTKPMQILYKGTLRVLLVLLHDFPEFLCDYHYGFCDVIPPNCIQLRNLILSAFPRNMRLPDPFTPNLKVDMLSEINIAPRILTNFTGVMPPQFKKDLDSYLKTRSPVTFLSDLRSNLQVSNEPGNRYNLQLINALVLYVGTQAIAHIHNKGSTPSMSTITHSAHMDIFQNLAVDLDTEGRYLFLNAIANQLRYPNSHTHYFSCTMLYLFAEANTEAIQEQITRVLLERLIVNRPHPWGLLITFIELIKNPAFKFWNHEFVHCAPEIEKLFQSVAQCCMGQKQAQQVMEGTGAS

Row | effect of a mutation on the interaction [1] | effect of a mutation on the interaction [2] | effect of a mutation on the interaction [3] | effect of a mutation on the interaction [4] | Variant
1 | disrupting interaction |  |  |  | F1389A
2 |  | disrupting interaction | decreasing interaction | decreasing interaction | Q1294A;S1295A;R1296A;L1297A;Q1299A;W1300A
